Results: the supplement of paper PMC7125110
± gives the standard error. For some assays here: Variants at the floor of the assay were thinned out.

B1: glmS ribozyme (parent)
chain: AUAAAAGCGCCAGAACUACAGAAAUGUAGUUGACGAGGAGGAGGUUUAUCGAAUUUUCGGCGGAUGCCUCCAAA

Experiments:
Details in all cases: with glucosamine-6-phosphate
[1] = variants of: B1; test: kcat; higher = faster cleavage; RNA array
In short: (§1)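 On sequenced MiSeq chips, barcoded ribozyme variants were made in situ by E. coli RNA polymerase and followed at 37 °C through a hybridised Cy3 probe. Glucosamine-6-phosphate was flowed in at 40 μM to 10 mM in HEPES/KCl/Mg(OAc)2 buffer. Exponential fits to normalised per-tile medians gave kobs, and weighted Michaelis–Menten fits gave kcat and KM.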

[2] = variants of: B1; test: KM; higher = weaker cofactor use; RNA array
In short: as §1

[3] = variants of: B1; test: self-cleavage kobs at 160 uM GlcN6P; higher = faster cleavage; RNA array
In short: as §1

[4] = variants of: B1; test: self-cleavage kobs at 640 uM GlcN6P; higher = faster cleavage; RNA array
In short: as §1

[5] = variants of: B1; test: self-cleavage kobs at 2500 uM GlcN6P; higher = faster cleavage; RNA array
In short: as §1

[6] = variants of: B1; test: self-cleavage kobs at 10000 uM GlcN6P; higher = faster cleavage; RNA array
In short: as §1

[7] = variants of: B1; test: self-cleavage kobs at 40 uM GlcN6P; higher = faster cleavage; RNA array
In short: as §1

Row | Variant | kcat [1] | KM [2] | self-cleavage kobs at 160 uM GlcN6P [3] | self-cleavage kobs at 640 uM GlcN6P [4] | self-cleavage kobs at 2500 uM GlcN6P [5] | self-cleavage kobs at 10000 uM GlcN6P [6] | self-cleavage kobs at 40 uM GlcN6P [7]
1 | C11A A15G | 0.000255 ± 2.9e-05 s⁻¹ | 1280 ± 310 µM | 3.04e-05 ± 1.5e-05 s⁻¹ | 8.86e-05 ± 1e-05 s⁻¹ | 0.000149 ± 1.9e-05 s⁻¹ | 0.000251 ± 3.3e-05 s⁻¹ | –
2 | G40A A52G | 0.000342 ± 4.4e-05 s⁻¹ | 1490 ± 450 µM | – | 0.000102 ± 1.6e-05 s⁻¹ | 0.000251 ± 2.8e-05 s⁻¹ | 0.000277 ± 3e-05 s⁻¹ | –
3 | C34U G35A C68U | 1.41e-05 ± 3.1e-06 s⁻¹ | – | – | – | – | – | –
4 | U31A U57A | 0.000241 ± 3.5e-06 s⁻¹ | 2390 ± 95 µM | – | 4.97e-05 ± 2.1e-05 s⁻¹ | 0.000125 ± 2.8e-05 s⁻¹ | 0.000194 ± 2.7e-05 s⁻¹ | –
5 | G29U U54A | 0.00792 ± 0.0027 s⁻¹ | 2360 ± 1100 µM | 0.000284 ± 7.7e-05 s⁻¹ | 0.00184 ± 0.0003 s⁻¹ | 0.00361 ± 0.0006 s⁻¹ | 0.0068 ± 0.00083 s⁻¹ | 0.000181 ± 1.9e-05 s⁻¹
6 | A33G C67G | 1.67e-05 ± 4.8e-06 s⁻¹ | – | – | – | – | – | –
7 | U49A C67A | 1.28e-05 ± 1.6e-06 s⁻¹ | – | – | – | – | – | –
8 | A12U G40C | 0.00584 ± 0.0009 s⁻¹ | 1420 ± 310 µM | 0.000567 ± 9.5e-05 s⁻¹ | 0.0014 ± 0.00029 s⁻¹ | 0.00529 ± 0.0011 s⁻¹ | 0.00509 ± 0.00057 s⁻¹ | 0.000175 ± 2e-05 s⁻¹
9 | C50A U54G | 2.18e-05 ± 1.9e-06 s⁻¹ | – | – | – | – | – | –
10 | A48G U54G | 0.000141 ± 9.6e-06 s⁻¹ | 761 ± 180 µM | – | 6.14e-05 ± 1.1e-05 s⁻¹ | 0.000134 ± 2.5e-05 s⁻¹ | 0.000127 ± 1.2e-05 s⁻¹ | –
11 | G63U C67U | < 1e-05 s⁻¹ | – | – | < 1e-05 s⁻¹ | – | – | < 1e-05 s⁻¹
12 | C50A C71A | 1.53e-05 ± 3.9e-06 s⁻¹ | – | – | – | – | – | –
13 | C16A U31G | 0.000292 ± 2.2e-05 s⁻¹ | 1280 ± 200 µM | 4.15e-05 ± 1.7e-05 s⁻¹ | 9.42e-05 ± 1.8e-05 s⁻¹ | 0.000177 ± 5e-05 s⁻¹ | 0.000267 ± 4.3e-05 s⁻¹ | –
14 | U65A C67G C71G | 2.24e-05 ± 6.2e-06 s⁻¹ | – | – | – | – | – | –
15 | U45G C71A | 0.000924 ± 0.00018 s⁻¹ | 1750 ± 590 µM | 8.6e-05 ± 1.7e-05 s⁻¹ | 0.000204 ± 3.8e-05 s⁻¹ | 0.000778 ± 0.00016 s⁻¹ | 0.000766 ± 0.0001 s⁻¹ | 3.27e-05 ± 1.3e-05 s⁻¹
16 | C11A C58A | 2e-05 ± 2.2e-07 s⁻¹ | 1680 ± 98 µM | < 1e-05 s⁻¹ | < 1e-05 s⁻¹ | – | – | < 1e-05 s⁻¹
17 | C68A C70U | 1.14e-05 ± 4.1e-06 s⁻¹ | – | – | – | – | – | –
18 | A14G G43U | 0.000159 ± 2.6e-05 s⁻¹ | 2770 ± 980 µM | – | 3.9e-05 ± 8.4e-06 s⁻¹ | 6.85e-05 ± 8.5e-06 s⁻¹ | 0.000131 ± 1.5e-05 s⁻¹ | –
19 | A42G U65A | 0.00459 ± 0.0018 s⁻¹ | – | 0.000409 ± 8.8e-05 s⁻¹ | 0.00121 ± 0.00028 s⁻¹ | 0.00291 ± 0.00077 s⁻¹ | 0.00423 ± 0.0014 s⁻¹ | 0.000318 ± 9.9e-05 s⁻¹
